Experimental data from patent US20220088131A1, “COMPOSITIONS AND METHODS RELATING TO C5L2” (King's College London, priority 2013, published 2022).

Experiments:
[1] = test system: human CD4+ T cells; experiment: Cytokine secretion by CD4+ T cells with C5aR or C5aR/C5L2 blockade (Cytometric Bead Array); format: cell-based
Source text: Human blood was obtained from healthy volunteers following ethical guidelines set by Kings College London (KCL) ethics committee (REC: 09/H0804/72). PBMCs were isolated by density centrifugation (Ficoll-Paque PLUS; GE healthcare, Uppsala, Sweden). Cell subsets were isolated by magnetic separation following manufacturer's instructions (Miltenyi Biotec, Auburn, Calif.). Monocytes were positively selected using anti-CD14 microbeads (average purity 97%) and CD4^+ T cells were isolated from the CD14-negative fraction using anti-CD4 microbeads (average purity 98%). Alternatively, CD4^+ T cells were isolated from purified PBMCs by cell sorting after staining with antibodies to CD14 and CD4 and CD3.
CD4^+ T cells and CD14^+ monocytes were cultured in medium (RPMI-1640 medium (Sigma-Alich, Suffolk, UK), supplemented with 1% GlutaMAX, 1% penicillin/streptomycin (both Life Technologies, Paisley, UK) and 10% FBS (HyClone Laboratories, Logan, Utah). In the case of T cells media was supplemented with 25 U/ml IL-2 (Sigma-Aldrich; or with concentrations indicated in figure legends). CD4^+ T cells (2.5×10^5) were cultured alone or together with plate-bound anti-CD3 (OKT3, Biolegend, San Diego, Calif.), anti-CD3 and anti-CD28 (CD28.2, BD Pharmingen, San Jose, Calif.) or anti-CD3 and anti-CD46 (TRA-2-10, provided by John Atkinson, Washington University, St Louis, Mo.) all immobilised onto 48-well plates at concentrations of 2 μg/ml PBS overnight at 4° C. Monocytes (2.5×10^5) were cultured either alone or in the presence of LPS or Flagellin (1 μg/ml). […] Cells were cultured at 37° C. and 5% CO2 and cytokine secetion assessed at 12, 24 or 36 h post activation.
(§1) The Th1/Th2/Th17 Cytometric Bead Array (BD Bioscience) was used to quantify cytokine production by CD4^+ T cells and monocytes following 12 or 36 h culture under distinct activation conditions. Samples were processed following manufacturer's instructions and acquired using BD FACScan. IL-1β amounts secreted into the cell media were measured by ELISA, according to the manufacturer's protocol (R&D Systems, Abingdon, UK).

[2] = test system: human CD4+ T cells; experiment: IL-1β secretion by CD4+ T cells (ELISA); format: cell-based; details: resting and activated (CD3/CD46) CD4+ T cells; dRA 7 μM; 24 h; FIG. 8
Protocol: (§2) FIG. 8. Effect of C5L2 blockage on IL-1β secretion by resting and activated CD4+ T cells and by monocytes. […] CD4+ T cells were isolated and left non-activated or CD3/CD46-activated as described (with or without addition of the C5aR/C5L2 double antagonist, dRA, 7 μM) and IL-1β secretion into the media measured at 24 h post activation using an ELISA. CD14+ monocytes (2.5×10^5) were left non-activated or activated with 100 ng/ml LPS for 12 h and supernatants assayed for IL-1β by ELISA. Data represent n=3 experiments with SEM for the CD4+ T cells and n=1 for monocytes (conditions were performed in duplicate and shown are the median values of each condition).
(§3) Human blood was obtained from healthy volunteers following ethical guidelines set by Kings College London (KCL) ethics committee (REC: 09/H0804/72). PBMCs were isolated by density centrifugation (Ficoll-Paque PLUS; GE healthcare, Uppsala, Sweden). Cell subsets were isolated by magnetic separation following manufacturer's instructions (Miltenyi Biotec, Auburn, Calif.). […]
as §1, with “Samples were processed following manufacturer's instructions and acquired using BD FACScan.” left out

[3] = test system: CD14+ monocytes; experiment: IL-1β secretion by monocytes (ELISA); format: cell-based, human; details: resting and LPS-activated (100 ng/ml, 12 h) monocytes; FIG. 8
Protocol: as §2, §3
as §1, with “Samples were processed following manufacturer's instructions and acquired using BD FACScan.” left out

[4] = test system: CD14+ monocytes; experiment: Pro-inflammatory cytokine release by monocytes (CBA); format: cell-based, human; details: resting and Flagellin-stimulated monocytes; 36 hours; dRA 7 μM, PMX53 10 μM; FIG. 9
Protocol: FIG. 9. C5L2 blockade induces pro-inflammatory cytokine release by human monocytes. CD14+ monocytes (2.5×10^5) were cultured for 36 hours and supernatants assayed for cytokines using CBA. Monocytes were treated with either C5aR/C5L2 double receptor antagonist (dRA; 7 μM), C5aR antagonist (PMX53; 10 μM) or control (non-treated). The effect of antagonist treatment was assessed on non-activated monocytes (white bars) as well as monocytes activated with 1 μg/ml of either Flagellin (light grey bars) or 100 ng/ml LPS (dark grey bars). Data represent n=4 experiments with SEM indicated. Statistical testing was not conducted as insufficient experimental repeats were performed to assume normal distribution. Asterisk denotes that the median value was 10,400 pg/ml.
Human blood was obtained from healthy volunteers following ethical guidelines set by Kings College London (KCL) ethics committee (REC: 09/H0804/72). PBMCs were isolated by density centrifugation (Ficoll-Paque PLUS; GE healthcare, Uppsala, Sweden). […]
as §1, with “Samples were processed following manufacturer's instructions and acquired using BD FACScan.” left out

[5] = test system: CD4+ T cells; experiment: TGF-β receptor chain expression in CD4+ T cells; format: cell-based, human; details: FIG. 16
Protocol: FIG. 16. C5L2 regulates TGF-β receptor chain expression in CD4+ T cells.
Results described above indicate that C5L2-mediated signals actively contribute to the negative regulation of human Th1 and Th17 responses. To further define C5L2-activated signaling events in CD4+ T cells, gene, miRNA and methylation arrays were performed using T cells from the C5-deficient patient and T cells activated in the presence of the dRA. […] It is believed that TGF-β is important for IL-17 production but also IFN-γ suppression. TGF-β receptor signaling via autocrine TGF-β production has been implicated as required for control of Th1 responses and prevention of autoimmunity in certain experimental models (Ishigame, et al., Proc Natl Acad Sci USA. (2013) 110(17):6961-6). It was of interest to examine whether C5L2-mediated signals regulate autocrine TGF-β production, TGF-β receptor signaling, or both.

[6] = activated CD4+ T cells, dRA 7 μM, PMX53 10 μM, FIG. 6

B1: A8delta71-73: Dual C5aR/C5L2 receptor antagonist; C5a variant A8 (C27A, H67F, D69R, M70S, Q71L, G73R, Arg74 deleted) lacking amino acids 71-73 (protein)
chain: TLQKKIEEIAAKYKHSVVKKCCYDGAAVNNDETCEQRAARISLGPRCIKAFTECCVVASQLRANISFKRS
secretion of IFN-γ [1, 6]: increased secretion | secretion of IL-17 [1, 6]: increased secretion | secretion of IL-6 ([1]; resting and activated CD4+ T cells, FIG. 7A): increased secretion | IL-1β secretion [2]: increased IL-1β secretion | IL-1β secretion [3]: increased IL-1β secretion | secretion of IL-6 [4]: promoted secretion | expression of TGF-β receptor chains [5]: increased expression
